The values that follow come from IntAct's records for PubMed 16717101.

B1: Regulatory protein SIR4 (Saccharomyces cerevisiae), P11978 (parent)
chain: MPNDNKTPNRSSTPKFTKKPVTPNDKIPEREEKSNEVKTPKIPLFTFAKSKNYSRPSTAIHTSPHQPSDVKPTSHKQLQQPKSSPLKKNNYNSFPHSNLEKISNSKLLSLLRSKTSAGRIESNNPSHDASRSLASFEQTAFSRHAQQQTSTFNSKPVRTIVPISTSQTNNSFLSGVKSLLSEEKIRDYSKEILGINLANEQPVLEKPLKKGSADIGASVISLTKDKSIRKDTVEEKKEEKLNIGKNFAHSDSLSVPKVSAGDSGISPEESKARSPGIAKPNAIQTEVYGINEESTNERLEINQEKPVKLDENSANSTVASALDTNGTSATTETLTSKKIVPSPKKVAIDQDKITLHDEKTLAPSKHQPITSEQKMKEDADLKRMEILKSPHLSKSPADRPQGRRNSRNFSTRDEETTKLAFLVEYEGQENNYNSTSRSTEKKNDMNTSAKNKNGENKKIGKRPPEIMSTEAHVNKVTEETTKQIQSVRIDGRKVLQKVQGESHIDSRNNTLNVTPSKRPQLGEIPNPMKKHKPNEGRTPNISNGTINIQKKLEPKEIVRDILHTKESSNEAKKTIQNPLNKSQNTALPSTHKVTQKKDIKIGTNDLFQVESAPKISSEIDRENVKSKDEPVSKAVESKSLLNLFSNVLKAPFIKSESKPFSSDALSKEKANFLETIASTEKPENKTDKVSLSQPVSASKHEYSDNFPVSLSQPSKKSFANHTEDEQIEKKKICRGRMNTIITHPGKMELVYVSDSDDSSSDNDSLTDLESLSSGESNEIKVTNDLDTSAEKDQIQAGKWFDPVLDWRKSDRELTKNILWRIADKTTYDKETITDLIEQGIPKHSYLSGNPLTSVTNDICSVENYETSSAFFYQQVHKKDRLQYLPLYAVSTFENTNNTEKNDVTNKNINIGKHSQEQNSSSAKPSQIPTVSSPLGFEETKLSTTPTKSNRRVSHSDTNSSKPKNTKENLSKSSWRQEWLANLKLISVSLVDEFPSELSDSDRQIINEKMQLLKDIFANNLKSAISNNFRESDIIILKGEIEDYPMSSEIKIYYNELQNKPDAKKARFWSFMKTQRFVSNMGFDIQKSCEPVSISTSVKPHVVEPEHMADAKIMPKDILQITKKPLMVKNVKPSSPPDVKSLVQLSTMETKTLPEKKQFDSIFNSNKAKIIPGNGKHASENISLSFSRPASYGYFSVGKRVPIVEDRRVKQLDDITDSNTTEILTSVDVLGTHSQTGTQQSNMYTSTQKTELEIDNKDSVTECSKDMKEDGLSFVDIVLSKAASALDEKEKQLAVANEIIRSLSDEVMRNEIRITSLQGDLTFTKKCLENARSQISEKDAKINKLMEKDFQVNKEIKPY

This assay covers variants of B1. As to conditions: with sir3_yeast SIR3, P06701.
Sequence of sir3_yeast SIR3, P06701 (P06701 whole entry): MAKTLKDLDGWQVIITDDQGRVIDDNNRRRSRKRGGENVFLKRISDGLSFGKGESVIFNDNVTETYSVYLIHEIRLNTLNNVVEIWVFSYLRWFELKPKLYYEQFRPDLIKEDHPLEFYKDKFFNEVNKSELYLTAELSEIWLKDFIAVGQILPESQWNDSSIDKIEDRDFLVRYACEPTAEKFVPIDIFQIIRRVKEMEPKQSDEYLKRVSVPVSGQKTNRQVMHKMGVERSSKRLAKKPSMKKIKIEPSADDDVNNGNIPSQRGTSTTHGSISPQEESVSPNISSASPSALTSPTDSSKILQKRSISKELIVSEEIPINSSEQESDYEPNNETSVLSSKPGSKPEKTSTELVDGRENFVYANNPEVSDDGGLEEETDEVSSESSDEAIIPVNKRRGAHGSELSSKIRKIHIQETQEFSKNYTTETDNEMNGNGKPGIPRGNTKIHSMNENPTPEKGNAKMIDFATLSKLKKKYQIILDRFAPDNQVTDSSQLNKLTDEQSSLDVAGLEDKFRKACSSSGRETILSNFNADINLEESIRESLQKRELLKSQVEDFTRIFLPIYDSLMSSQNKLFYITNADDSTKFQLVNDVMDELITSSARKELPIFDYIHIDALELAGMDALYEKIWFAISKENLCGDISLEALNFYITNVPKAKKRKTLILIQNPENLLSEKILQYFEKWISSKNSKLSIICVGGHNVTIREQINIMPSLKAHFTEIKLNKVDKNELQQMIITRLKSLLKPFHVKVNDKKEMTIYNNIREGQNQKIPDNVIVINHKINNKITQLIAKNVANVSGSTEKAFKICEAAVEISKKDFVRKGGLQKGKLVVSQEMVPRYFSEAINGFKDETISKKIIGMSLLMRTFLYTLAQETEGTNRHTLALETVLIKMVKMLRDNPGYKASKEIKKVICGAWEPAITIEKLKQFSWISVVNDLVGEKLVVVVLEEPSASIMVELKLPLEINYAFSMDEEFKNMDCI
M1307N: the “effect of a mutation on the interaction” value is recorded as “decreasing interaction”.
